Experimental data from paper PMC12888917, “Structure-based engineering of the midnolin-proteasome pathway for targeted protein degradation” (Protein & Cell, 2025).

Biological target: T1, full-length RPN1 (UniProt Q13200 1-908)
T1 construct: RPN1, full length, as isolated protein in the BLI assay
Assay: BLI; full-length RPN1 and GST-tagged midnolin C-Helix (375–413)
Settings: both partners purified

T1 sequence (Q13200 whole entry): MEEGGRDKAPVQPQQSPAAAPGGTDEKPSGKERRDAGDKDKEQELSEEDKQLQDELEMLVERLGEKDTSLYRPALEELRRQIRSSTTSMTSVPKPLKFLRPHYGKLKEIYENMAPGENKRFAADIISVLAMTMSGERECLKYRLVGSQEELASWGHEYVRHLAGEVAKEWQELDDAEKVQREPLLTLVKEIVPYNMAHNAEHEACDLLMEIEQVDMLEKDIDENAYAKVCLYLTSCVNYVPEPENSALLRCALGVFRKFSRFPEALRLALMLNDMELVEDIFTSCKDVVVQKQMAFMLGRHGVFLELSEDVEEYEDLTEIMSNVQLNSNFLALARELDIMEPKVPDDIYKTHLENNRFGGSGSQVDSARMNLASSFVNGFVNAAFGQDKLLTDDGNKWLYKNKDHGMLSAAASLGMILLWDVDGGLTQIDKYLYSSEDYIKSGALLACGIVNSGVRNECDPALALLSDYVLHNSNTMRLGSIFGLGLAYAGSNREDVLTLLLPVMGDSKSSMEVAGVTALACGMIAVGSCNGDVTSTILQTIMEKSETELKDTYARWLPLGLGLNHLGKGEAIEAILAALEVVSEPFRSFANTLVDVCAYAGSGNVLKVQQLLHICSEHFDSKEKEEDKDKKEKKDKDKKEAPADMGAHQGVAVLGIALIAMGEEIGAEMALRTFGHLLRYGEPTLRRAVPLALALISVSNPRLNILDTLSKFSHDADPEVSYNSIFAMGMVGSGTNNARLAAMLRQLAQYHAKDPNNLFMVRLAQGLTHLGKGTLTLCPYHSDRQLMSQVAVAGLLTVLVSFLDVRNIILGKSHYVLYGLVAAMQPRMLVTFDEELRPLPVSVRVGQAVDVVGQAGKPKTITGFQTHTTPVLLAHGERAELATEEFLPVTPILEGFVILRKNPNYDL

PPGDRLRQTENRATRCKVERLQLLLQQKRLRRKARRDAR (domain or fragment, human, UniProt Q504T8 375-413, looked up, also called MIDN C-Helix) [GST-tagged midnolin C-Helix (375–413)]
Kd: ~88.5 nM
